From publication doi:10.1101/2020.03.29.013490

Legend:
[1] = target: recombinant human angiotensin-converting enzyme-2 (ACE2) (human) (UniProt Q9BYF1); experiment: BLI
[2] = target: 2019-nCoV spike 1 protein (S1) (2019-nCoV (SARS-CoV-2)); experiment: BLI

Sequence of recombinant human angiotensin-converting enzyme-2 (ACE2) (human) (Q9BYF1 18-740): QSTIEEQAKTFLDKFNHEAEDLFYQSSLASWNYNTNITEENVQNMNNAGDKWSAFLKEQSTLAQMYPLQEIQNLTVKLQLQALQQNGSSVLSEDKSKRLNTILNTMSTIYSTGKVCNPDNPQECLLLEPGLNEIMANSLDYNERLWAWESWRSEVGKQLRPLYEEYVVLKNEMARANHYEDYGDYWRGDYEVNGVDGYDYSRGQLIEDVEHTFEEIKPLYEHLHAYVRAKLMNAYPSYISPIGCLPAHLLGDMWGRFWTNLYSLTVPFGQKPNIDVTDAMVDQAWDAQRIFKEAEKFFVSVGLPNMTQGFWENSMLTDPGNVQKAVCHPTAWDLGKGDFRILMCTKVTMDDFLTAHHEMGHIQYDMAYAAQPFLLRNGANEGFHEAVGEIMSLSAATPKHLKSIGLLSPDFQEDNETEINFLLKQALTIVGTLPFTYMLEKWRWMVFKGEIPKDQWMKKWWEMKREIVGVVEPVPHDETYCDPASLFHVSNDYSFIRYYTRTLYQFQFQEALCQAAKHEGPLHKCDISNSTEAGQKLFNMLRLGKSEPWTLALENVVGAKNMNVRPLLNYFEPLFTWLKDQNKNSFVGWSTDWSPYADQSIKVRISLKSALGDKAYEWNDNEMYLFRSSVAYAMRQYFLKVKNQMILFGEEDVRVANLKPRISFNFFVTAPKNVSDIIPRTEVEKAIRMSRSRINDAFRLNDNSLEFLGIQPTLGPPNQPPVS
Sequence of human defensin 5 (HD5) (Q01523 63-94): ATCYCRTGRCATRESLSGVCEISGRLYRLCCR

Row | Substance | Kd [1] [nM] | Kd [2] [nM]
1 | 2019-nCoV spike 1 protein (S1) (domain or fragment) | 2.68 | –
2 | human defensin 5 (HD5) (from UniProt Q01523 63-94) (peptide) | 39.3 | 82.8
